The data set concerns the molecule itself. The data set can be described thus: SDS-PAGE.

B1: radixin (natural protein, UniProt P26043 1-583, looked up)
chain: MPKPINVRVTTMDAELEFAIQPNTTGKQLFDQVVKTVGLREVWFFGLQYVDSKGYSTWLKLNKKVTQQDVKKENPLQFKFRAKFFPEDVSEELIQEITQRLFFLQVKEAILNDEIYCPPETAVLLASYAVQAKYGDYNKEIHKPGYLANDRLLPQRVLEQHKLTKEQWEERIQNWHEEHRGMLREDSMMEYLKIAQDLEMYGVNYFEIKNKKGTELWLGVDALGLNIYEHDDKLTPKIGFPWSEIRNISFNDKKFVIKPIDKKAPDFVFYAPRLRINKRILALCMGNHELYMRRRKPDTIEVQQMKAQAREEKHQKQLERAQLENEKKKREIAEKEKERIEREKEELMERLRQIEEQTVKAQKELEEQTRKALELEQERQRAKEEAERLDRERRAAEEAKSAIAKQAADQMKNQEQLAAELAEFTAKIALLEEAKKKKEEEATEWQHKAFAAQEDLEKTKEELKTVMSAPPPPPPPPVIPPTENEHDEQDENSAEASAELSSEGVMNHRSEEERVTETQKNERVKKQLQALSSELAQARDETKKTQNDVLHAENVKAGRDKYKTLRQIRQGNTKQRIDEFEAM
For the protein B1, the “stoichiometry N” value was determined as 2.

The values are drawn from article PMC2289953 (The Journal of Cell Biology, 1991).
